These results are taken from patent US20210308031.

Series [1] concerns (Pro-Pro-Gly)10 peptide model substrate.
Series [2] has as its system Unhydroxylated collagen purified from strain PP434 (vector MMV411).

As for “AB fusion protein with the His tag (P4HA1 at the N-terminus, GSGSGS linker, P4HB at the C-terminus, six histidines), encoded by plasmid MMV502”, the “alpha-ketoglutaric acid consumption over time” value in series [1] is “there was less a ketoglutaric acid in the sample with the AB fusion protein than the sample with native P4HA and P4HB proteins”. For the same substance, in series [2], the “% Hydroxyproline (in vitro hydroxylation, 5 uM enzyme, 2 uM collagen, 32 C, 1 hour); enzyme from strain PP547” value is listed as 34.8% and the “% Hydroxyproline (in vitro hydroxylation, 5 uM enzyme, 2 uM collagen, 32 C, 1 hour); enzyme from strain PP635” value came to 26.6%.
